# Measurements published in publication PMC2836565.
# T1: Vts1 (Saccharomyces cerevisiae, UniProt Q08831 1-523)
# T1 sequence: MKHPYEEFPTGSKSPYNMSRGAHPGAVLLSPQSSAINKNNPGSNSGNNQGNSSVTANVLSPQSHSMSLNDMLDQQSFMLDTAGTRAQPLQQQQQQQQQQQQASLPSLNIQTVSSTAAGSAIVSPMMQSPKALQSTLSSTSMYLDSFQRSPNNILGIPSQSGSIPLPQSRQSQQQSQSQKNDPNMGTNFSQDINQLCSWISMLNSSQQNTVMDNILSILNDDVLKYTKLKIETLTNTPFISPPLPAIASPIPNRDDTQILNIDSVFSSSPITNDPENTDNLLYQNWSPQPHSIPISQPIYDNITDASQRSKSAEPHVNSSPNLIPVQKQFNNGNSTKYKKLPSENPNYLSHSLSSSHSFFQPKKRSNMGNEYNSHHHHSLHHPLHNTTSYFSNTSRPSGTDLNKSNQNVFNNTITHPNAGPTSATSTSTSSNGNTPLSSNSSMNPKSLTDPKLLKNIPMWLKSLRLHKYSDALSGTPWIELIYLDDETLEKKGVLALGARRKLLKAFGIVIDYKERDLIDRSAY
# T2: Vts1-A498Q (Saccharomyces cerevisiae, UniProt Q08831 1-523, A498Q)
# T2 sequence: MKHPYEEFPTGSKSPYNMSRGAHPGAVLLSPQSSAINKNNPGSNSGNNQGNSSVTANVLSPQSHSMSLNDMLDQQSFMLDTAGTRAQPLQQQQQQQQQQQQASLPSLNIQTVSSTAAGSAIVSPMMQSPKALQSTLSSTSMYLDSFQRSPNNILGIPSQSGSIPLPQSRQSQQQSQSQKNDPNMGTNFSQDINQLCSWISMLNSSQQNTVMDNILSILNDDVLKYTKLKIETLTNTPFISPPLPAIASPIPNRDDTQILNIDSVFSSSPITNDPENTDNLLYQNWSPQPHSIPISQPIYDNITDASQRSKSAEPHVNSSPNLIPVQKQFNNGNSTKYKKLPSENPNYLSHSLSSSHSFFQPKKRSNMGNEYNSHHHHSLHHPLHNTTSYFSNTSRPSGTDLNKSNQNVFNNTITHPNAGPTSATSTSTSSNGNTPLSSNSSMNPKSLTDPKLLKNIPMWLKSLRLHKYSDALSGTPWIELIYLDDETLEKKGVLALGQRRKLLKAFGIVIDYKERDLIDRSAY
# Experiments:
# Vts1 [1] = molecular target: T1, Vts1; test: competition
# Vts1 [2] = molecular target: T1, Vts1; test: EMSA
# Vts1-A498Q = molecular target: T2, Vts1-A498Q; test: EMSA
Binder,binding result (Vts1 [1]),binding result (Vts1 [2]),binding result (Vts1-A498Q)
dsDNA 50-bp (dsDNA) DNA 1: GAAAACATTATTAATGGCGTCGAGCTAGGCACAAGGCGAACTGCTAACGG DNA 2: CCGTTAGCAGTTCGCCTTGTGCCTAGCTCGACGCCATTAATAATGTTTTC,binds,–,–
GCUCGAGGCUCUGGCAGCCUCGAGC (structured_RNA) [SRE-RNA],–,binds,no binding
